Target: 6-phosphogluconate dehydrogenase from Corynebacterium glutamicum ATCC 13032 (Corynebacterium glutamicum ATCC 13032)
Assay: SEC; analytical, Superdex 200 Increase 10/300 GL; 1 ml at 1 mg/ml; 40 mM Tris-HCl pH 8.0, 150 mM NaCl; mass from a calibration curve

stoichiometry N: 2
Substance: 6-phosphogluconate dehydrogenase from Corynebacterium glutamicum ATCC 13032 (enzyme)
